Where a SMILES comes first, the peptide text is derived from it. Where no end group is shown, it is not given here. [ ]: non-standard residue; d: D form. pY = N[C@@H](Cc1ccc(OP(=O)(O)O)cc1)C(=O)O
B2: SH2-SH3B fragment of Vav1 (669-845) (domain or fragment, mouse, UniProt P27870 669-845, looked up)
chain: HLWYAGPMERAGAEGILTNRSDGTYLVRQRVKDTAEFAISIKYNVEVKHIKIMTSEGLYRITEKKAFRGLLELVEFYQQNSLKDCFKSLDTTLQFPYKEPERRAISKPPAGSTKYFGTAKARYDFCARDRSELSLKEGDIIKILNKKGQQGWWRGEIYGRIGWFPSNYVEEDYSEYC
B3: SH2 domain of Vav1 (669-771) (domain or fragment, mouse, UniProt P27870 669-771, looked up)
chain: HLWYAGPMERAGAEGILTNRSDGTYLVRQRVKDTAEFAISIKYNVEVKHIKIMTSEGLYRITEKKAFRGLLELVEFYQQNSLKDCFKSLDTTLQFPYKEPERR
B5: SH3A-SH2-SH3B fragment of Vav1 (596-845) (domain or fragment, mouse, UniProt P27870 596-845, looked up)
chain: KMEVFQEYYGIPPPPGAFGPFLRLNPGDIVELTKAEAEHNWWEGRNTATNEVGWFPCNRVHPYVHGPPQDLSVHLWYAGPMERAGAEGILTNRSDGTYLVRQRVKDTAEFAISIKYNVEVKHIKIMTSEGLYRITEKKAFRGLLELVEFYQQNSLKDCFKSLDTTLQFPYKEPERRAISKPPAGSTKYFGTAKARYDFCARDRSELSLKEGDIIKILNKKGQQGWWRGEIYGRIGWFPSNYVEEDYSEYC

How the values were obtained:
[1] = target: T1, SH3A-SH2 fragment of Vav1 (596–771) (Mus musculus, UniProt P27870); experiment: Isothermal titration calorimetry; assay type: binding
T1 sequence (P27870 596-771): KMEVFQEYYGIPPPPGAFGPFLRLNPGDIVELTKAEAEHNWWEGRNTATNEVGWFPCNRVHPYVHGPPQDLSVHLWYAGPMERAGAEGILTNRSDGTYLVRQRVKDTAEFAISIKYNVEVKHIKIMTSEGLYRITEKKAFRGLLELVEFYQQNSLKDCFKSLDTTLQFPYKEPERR

[2] = target: T2, SH2-SH3B fragment of Vav1 (669–845) (Mus musculus, UniProt P27870); experiment: Isothermal titration calorimetry; assay type: binding
T2 sequence (P27870 669-845): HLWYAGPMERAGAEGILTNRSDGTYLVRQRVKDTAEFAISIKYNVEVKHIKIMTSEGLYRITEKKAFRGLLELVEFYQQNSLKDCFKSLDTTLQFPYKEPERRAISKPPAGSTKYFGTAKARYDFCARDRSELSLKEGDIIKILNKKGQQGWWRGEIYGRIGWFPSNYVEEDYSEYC

[3] = target: B2; experiment: ITC
[4] = target: B5; experiment: ITC
[5] = target: B3; experiment: ITC
[6] = target: SLP76 2pY peptide (pY112 and pY128) (mouse, phosphotyrosine at Y112 and at Y128 (EDDp…pYESPNE)); experiment: ITC
[7] = target: T3, SH3A-SH2 fragment of Vav1 (596-771) (mouse, UniProt P27870 596-771); experiment: ITC
T3 sequence (looked up): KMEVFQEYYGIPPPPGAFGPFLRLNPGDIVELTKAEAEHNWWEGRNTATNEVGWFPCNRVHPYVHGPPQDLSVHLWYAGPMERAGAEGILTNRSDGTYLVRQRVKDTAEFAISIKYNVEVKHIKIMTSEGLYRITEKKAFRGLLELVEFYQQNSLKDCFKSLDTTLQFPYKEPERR

Molecule: NC(=O)C[C@H](NC(=O)[C@@H]1CCCN1C(=O)[C@H](CO)NC(=O)[C@H](CCC(=O)O)NC(=O)[C@H](Cc1ccc(OP(=O)(O)O)cc1)NC(=O)[C@H](CC(=O)O)NC(=O)[C@H](CC(=O)O)NC(=O)[C@@H](N)CCC(=O)O)C(=O)N[C@@H](CC(=O)O)C(=O)O [pY112] (HELM PEPTIDE1{E.D.D.[O=C([C@H](Cc1ccc(OP(=O)(O)O)cc1)N[*:1])[*:2]].E.S.P.N.D}$$$$V2.0)
- Kd [1]: 1.06 µM

Molecule: NC(=O)C[C@H](NC(=O)[C@@H]1CCCN1C(=O)[C@H](CO)NC(=O)[C@H](CCC(=O)O)NC(=O)[C@H](Cc1ccc(OP(=O)(O)O)cc1)NC(=O)[C@H](CC(=O)O)NC(=O)CNC(=O)[C@@H](N)CC(=O)O)C(=O)N[C@@H](CCC(=O)O)C(=O)O [pY128] (HELM PEPTIDE1{D.G.D.[O=C([C@H](Cc1ccc(OP(=O)(O)O)cc1)N[*:1])[*:2]].E.S.P.N.E}$$$$V2.0)
- Kd [2]: 1.06 µM

B1: SLP76 pY112 peptide (peptide)
peptide: EDD[pY]ESPND
- Kd [3]: 1.32 µM
- Kd [4]: 1.85 µM
- Kd [5]: 1.64 µM

Molecule: B2
- stoichiometry N [6]: 2

Molecule: B3
- stoichiometry N [6]: 2 SH2 domain:peptide

B4: SLP76 pY128 peptide (peptide)
peptide: DGD[pY]ESPNE
- Kd [4]: 1.35 µM
- Kd [7]: 1.04 µM

Molecule: B5
- stoichiometry N [6]: 2

From article PMC3561853 (Journal of Cell Science, 2012)
